Values of other authors as cited in paper PMC7855784.

Molecular target: HER2 ECD (Homo sapiens) (UniProt P04626)

PEPD (from UniProt P12955)
Kd: 7.3 nM
